Test results reported in paper PMC8786603.
Like-named read-outs stand apart in the source and are kept apart here.

Experiments:
Experiment in all cases: cryo-EM structure
[1] = molecular target: SARS-CoV-2 Delta prefusion-stabilized soluble trimeric spike ectodomain (S-trimer) (SARS-CoV-2) (UniProt P0DTC2)
[2] = molecular target: SARS-CoV-2 Omicron prefusion-stabilized soluble trimeric spike ectodomain (S-trimer) (SARS-CoV-2) (UniProt P0DTC2)
[3] = molecular target: SARS-CoV-2 Omicron prefusion-stabilized soluble trimeric spike ectodomain (S-trimer) (SARS-CoV-2) (UniProt P0DTC2); remark: listed apart in the source

| Substance | stoichiometry N [1] [protomers] | stoichiometry N [2] [protomers] | stoichiometry N [3] [protomers] |
| --- | --- | --- | --- |
| SARS-CoV-2 Delta prefusion-stabilized soluble trimeric spike ectodomain (S-trimer) (from UniProt P0DTC2 14-1208) (natural protein) | 3 |  |  |
| SARS-CoV-2 Omicron prefusion-stabilized soluble trimeric spike ectodomain (S-trimer) (from UniProt P0DTC2 14-1208) (natural protein) |  | 3 | 3 |
